From the supplement of paper PMC9112550, “Optimization of the antimicrobial peptide Bac7 by deep mutational scanning” (BMC Biology, 2022) come the findings set out here.

The data set relates to Escherichia coli TOP10. Description: shrunken log2 fold change of peptide-encoding DNA abundance (4.5 h post-induction vs induction); higher = less antimicrobial activity (less host growth inhibition). The settings on record: time post-induction: 4.5 h; library: site-saturation at positions 5, 18, 19, 20.
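Note: peptides expressed intracellularly from a pBAD plasmid library in pooled LB shake-flask culture, induced with 0.3% L-arabinose, DNA abundance read by NGS, three biological replicates, DESeq2 with apeglm shrinkage.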

As to RRIRVRPPRLPRPRPRPNENPRP, the “shrunken log2 fold change” value is -0.349.

For RRIRLRPPRLPRPRPRPGGSPRP, the “shrunken log2 fold change” value was determined as 0.259.

For the sequence RRIRYRPPRLPRPRPRPGITPRP, the “shrunken log2 fold change” value is -0.444.

Consider RRIRLRPPRLPRPRPRPDGEPRP, for which the “shrunken log2 fold change” value is -0.00819.

On to RRIRWRPPRLPRPRPRPQQDPRP, for which the “shrunken log2 fold change” value came to 0.0825.

As for RRIRDRPPRLPRPRPRPCCQPRP, the “shrunken log2 fold change” value is -0.0183.

In the case of RRIRMRPPRLPRPRPRPNCGPRP, the “shrunken log2 fold change” value was -0.216.

Consider RRIRKRPPRLPRPRPRPHCMPRP, for which the “shrunken log2 fold change” value was 0.159.

For the sequence RRIRHRPPRLPRPRPRPLRDPRP, the “shrunken log2 fold change” value amounted to 0.271.

Consider RRIRNRPPRLPRPRPRPNMAPRP, for which the “shrunken log2 fold change” value was -0.214.

On to RRIRLRPPRLPRPRPRPGSMPRP, for which the “shrunken log2 fold change” value is -0.192.

With RRIRHRPPRLPRPRPRPWPDPRP, the “shrunken log2 fold change” value is -0.0062.

As for RRIRERPPRLPRPRPRPQCRPRP, the “shrunken log2 fold change” value was -0.401.

With RRIRLRPPRLPRPRPRPIATPRP, the “shrunken log2 fold change” value was determined as 0.173.

With RRIRCRPPRLPRPRPRPKTTPRP, the “shrunken log2 fold change” value is -0.000868.

Regarding RRIRQRPPRLPRPRPRPHVSPRP, the “shrunken log2 fold change” value was -0.108.

Turning to RRIRRRPPRLPRPRPRPTKLPRP, the “shrunken log2 fold change” value was 0.111.

As for RRIRVRPPRLPRPRPRPNMKPRP, the “shrunken log2 fold change” value is -0.524.

In the case of RRIRERPPRLPRPRPRPTKYPRP, the “shrunken log2 fold change” value is -0.568.

Turning to RRIRPRPPRLPRPRPRPATCPRP, the “shrunken log2 fold change” value was 1.55.

For the sequence RRIRHRPPRLPRPRPRPDKVPRP, the “shrunken log2 fold change” value amounted to 0.1.

Turning to RRIRHRPPRLPRPRPRPYIFPRP, the “shrunken log2 fold change” value was -0.446.

As to RRIRYRPPRLPRPRPRPFSKPRP, the “shrunken log2 fold change” value is -0.107.

As to RRIRIRPPRLPRPRPRPPDVPRP, the “shrunken log2 fold change” value was -0.109.

Consider RRIRGRPPRLPRPRPRPHHPPRP, for which the “shrunken log2 fold change” value stood at 1.21.

RRIRPRPPRLPRPRPRPRAFPRP: the “shrunken log2 fold change” value turned out to be 0.32.

Regarding RRIRARPPRLPRPRPRPEFEPRP, the “shrunken log2 fold change” value stood at 0.75.

RRIRCRPPRLPRPRPRPNWNPRP: the “shrunken log2 fold change” value was -0.514.

Regarding RRIRVRPPRLPRPRPRPCRIPRP, the “shrunken log2 fold change” value was -0.385.

For RRIRTRPPRLPRPRPRPKAHPRP, the “shrunken log2 fold change” value stood at 0.182.

RRIRPRPPRLPRPRPRPCPYPRP: the “shrunken log2 fold change” value is -1.08.

With RRIRRRPPRLPRPRPRPWKEPRP, the “shrunken log2 fold change” value is -0.00773.

Consider RRIRIRPPRLPRPRPRPWNFPRP, for which the “shrunken log2 fold change” value was -0.00674.

With RRIRIRPPRLPRPRPRPVAQPRP, the “shrunken log2 fold change” value was -0.103.

RRIRNRPPRLPRPRPRPGLYPRP: the “shrunken log2 fold change” value was -0.581.

Regarding RRIRKRPPRLPRPRPRPTLYPRP, the “shrunken log2 fold change” value came out at 0.0394.

As for RRIRERPPRLPRPRPRPNMAPRP, the “shrunken log2 fold change” value is -0.163.

In the case of RRIRRRPPRLPRPRPRPYQGPRP, the “shrunken log2 fold change” value was -0.00892.

Consider RRIRRRPPRLPRPRPRPKQQPRP, for which the “shrunken log2 fold change” value is 0.0775.

As for RRIRGRPPRLPRPRPRPRQAPRP, the “shrunken log2 fold change” value is 0.93.

For the sequence RRIRDRPPRLPRPRPRPLAAPRP, the “shrunken log2 fold change” value was found to be 0.913.

Turning to RRIRLRPPRLPRPRPRPDHNPRP, the “shrunken log2 fold change” value was -0.00288.

For RRIRARPPRLPRPRPRPEGHPRP, the “shrunken log2 fold change” value amounted to 0.223.

As for RRIRLRPPRLPRPRPRPHWRPRP, the “shrunken log2 fold change” value worked out at 0.147.

In the case of RRIRIRPPRLPRPRPRPIKNPRP, the “shrunken log2 fold change” value was -0.546.

As to RRIRERPPRLPRPRPRPPCMPRP, the “shrunken log2 fold change” value is -0.272.

With RRIRPRPPRLPRPRPRPHLNPRP, the “shrunken log2 fold change” value is -0.517.

For the sequence RRIRARPPRLPRPRPRPPMQPRP, the “shrunken log2 fold change” value is 0.781.

Regarding RRIRCRPPRLPRPRPRPAQWPRP, the “shrunken log2 fold change” value is 0.696.

RRIRDRPPRLPRPRPRPNCPPRP: the “shrunken log2 fold change” value was -0.00232.

For the sequence RRIRCRPPRLPRPRPRPVARPRP, the “shrunken log2 fold change” value was found to be 0.255.

In the case of RRIRNRPPRLPRPRPRPLTKPRP, the “shrunken log2 fold change” value was found to be 0.164.

As for RRIRMRPPRLPRPRPRPASHPRP, the “shrunken log2 fold change” value was 0.343.

RRIRHRPPRLPRPRPRPVAYPRP: the “shrunken log2 fold change” value was -0.332.

For RRIRKRPPRLPRPRPRPLKVPRP, the “shrunken log2 fold change” value came out at 0.237.

As for RRIRRRPPRLPRPRPRPCNKPRP, the “shrunken log2 fold change” value was -0.137.

RRIRPRPPRLPRPRPRPPKRPRP: the “shrunken log2 fold change” value amounted to 0.496.

Take RRIRFRPPRLPRPRPRPTTCPRP: the “shrunken log2 fold change” value is -0.19.

On to RRIRYRPPRLPRPRPRPMFHPRP, for which the “shrunken log2 fold change” value was -1.24.

With RRIRRRPPRLPRPRPRPMAHPRP, the “shrunken log2 fold change” value turned out to be 0.0412.

For the sequence RRIRIRPPRLPRPRPRPLQMPRP, the “shrunken log2 fold change” value is -0.264.

On to RRIRQRPPRLPRPRPRPFFPPRP, for which the “shrunken log2 fold change” value is -0.0441.

On to RRIRHRPPRLPRPRPRPWMTPRP, for which the “shrunken log2 fold change” value was -0.225.

As for RRIRFRPPRLPRPRPRPAKEPRP, the “shrunken log2 fold change” value turned out to be 0.0148.

As to RRIRSRPPRLPRPRPRPNVYPRP, the “shrunken log2 fold change” value is -0.257.

With RRIRERPPRLPRPRPRPYINPRP, the “shrunken log2 fold change” value was -0.248.

On to RRIRLRPPRLPRPRPRPEDSPRP, for which the “shrunken log2 fold change” value was -0.0351.

RRIRLRPPRLPRPRPRPGFCPRP: the “shrunken log2 fold change” value is 0.272.

RRIRERPPRLPRPRPRPCPVPRP: the “shrunken log2 fold change” value worked out at 0.0397.

Consider RRIRVRPPRLPRPRPRPNERPRP, for which the “shrunken log2 fold change” value was found to be 0.0435.

For the sequence RRIRNRPPRLPRPRPRPDGPPRP, the “shrunken log2 fold change” value is 0.01.

In the case of RRIRIRPPRLPRPRPRPSHYPRP, the “shrunken log2 fold change” value was -0.528.

As for RRIRYRPPRLPRPRPRPTREPRP, the “shrunken log2 fold change” value was -0.145.

As to RRIRNRPPRLPRPRPRPLRSPRP, the “shrunken log2 fold change” value was 0.119.

As to RRIRHRPPRLPRPRPRPTMTPRP, the “shrunken log2 fold change” value was -0.29.

For the sequence RRIRCRPPRLPRPRPRPAGHPRP, the “shrunken log2 fold change” value came to 0.0641.

RRIRQRPPRLPRPRPRPMKIPRP: the “shrunken log2 fold change” value is -0.0609.

As to RRIRTRPPRLPRPRPRPGYGPRP, the “shrunken log2 fold change” value is -0.139.

As for RRIRFRPPRLPRPRPRPLSGPRP, the “shrunken log2 fold change” value was -0.233.

Take RRIRVRPPRLPRPRPRPKQSPRP: the “shrunken log2 fold change” value is 0.0123.

RRIRTRPPRLPRPRPRPTPWPRP: the “shrunken log2 fold change” value turned out to be 0.411.

On to RRIRERPPRLPRPRPRPCETPRP, for which the “shrunken log2 fold change” value was -0.336.

As to RRIRNRPPRLPRPRPRPCLVPRP, the “shrunken log2 fold change” value was determined as 0.0322.

In the case of RRIRVRPPRLPRPRPRPGNHPRP, the “shrunken log2 fold change” value is -0.245.

In the case of RRIRSRPPRLPRPRPRPMTYPRP, the “shrunken log2 fold change” value is 0.132.

For RRIRNRPPRLPRPRPRPCTQPRP, the “shrunken log2 fold change” value was -0.147.

For RRIRMRPPRLPRPRPRPPQNPRP, the “shrunken log2 fold change” value was determined as 1.13.

Turning to RRIRRRPPRLPRPRPRPVFDPRP, the “shrunken log2 fold change” value was determined as 0.348.

Regarding RRIRERPPRLPRPRPRPTFGPRP, the “shrunken log2 fold change” value stood at 0.0107.

RRIRWRPPRLPRPRPRPIRQPRP: the “shrunken log2 fold change” value was -0.0309.

As to RRIRFRPPRLPRPRPRPLPKPRP, the “shrunken log2 fold change” value turned out to be 0.55.

Turning to RRIRFRPPRLPRPRPRPSRWPRP, the “shrunken log2 fold change” value came to 0.29.

With RRIRLRPPRLPRPRPRPESPPRP, the “shrunken log2 fold change” value worked out at 0.124.

As to RRIRHRPPRLPRPRPRPGDTPRP, the “shrunken log2 fold change” value is -0.0174.

As for RRIRMRPPRLPRPRPRPFGAPRP, the “shrunken log2 fold change” value worked out at 0.329.

In the case of RRIRGRPPRLPRPRPRPRDRPRP, the “shrunken log2 fold change” value came out at 0.789.

Regarding RRIRVRPPRLPRPRPRPAFKPRP, the “shrunken log2 fold change” value was found to be 0.086.

For RRIRIRPPRLPRPRPRPMLQPRP, the “shrunken log2 fold change” value is -0.452.

In the case of RRIRDRPPRLPRPRPRPGKYPRP, the “shrunken log2 fold change” value is -0.124.

Regarding RRIRDRPPRLPRPRPRPWHNPRP, the “shrunken log2 fold change” value was -0.144.

With RRIRGRPPRLPRPRPRPSAYPRP, the “shrunken log2 fold change” value was 1.07.

Take RRIRERPPRLPRPRPRPECKPRP: the “shrunken log2 fold change” value was -0.132.

As for RRIRHRPPRLPRPRPRPNVEPRP, the “shrunken log2 fold change” value was -0.063.

Regarding RRIRTRPPRLPRPRPRPDNFPRP, the “shrunken log2 fold change” value was -0.231.

For RRIRWRPPRLPRPRPRPDMFPRP, the “shrunken log2 fold change” value was -0.0661.

Consider RRIRVRPPRLPRPRPRPNRTPRP, for which the “shrunken log2 fold change” value stood at 0.0905.

In the case of RRIRPRPPRLPRPRPRPEESPRP, the “shrunken log2 fold change” value is -0.0202.

As for RRIRIRPPRLPRPRPRPILLPRP, the “shrunken log2 fold change” value is -0.266.

As to RRIRYRPPRLPRPRPRPWRYPRP, the “shrunken log2 fold change” value came out at 0.026.

In the case of RRIRMRPPRLPRPRPRPHQVPRP, the “shrunken log2 fold change” value came out at 0.423.

Take RRIRNRPPRLPRPRPRPCYWPRP: the “shrunken log2 fold change” value is -0.345.

Take RRIRRRPPRLPRPRPRPPDFPRP: the “shrunken log2 fold change” value is -0.079.

For RRIRYRPPRLPRPRPRPFAYPRP, the “shrunken log2 fold change” value is -0.00131.

Turning to RRIRYRPPRLPRPRPRPMINPRP, the “shrunken log2 fold change” value is -1.18.

With RRIRPRPPRLPRPRPRPFYVPRP, the “shrunken log2 fold change” value was -0.459.

Consider RRIRRRPPRLPRPRPRPTQHPRP, for which the “shrunken log2 fold change” value came out at 0.691.

On to RRIRVRPPRLPRPRPRPRWDPRP, for which the “shrunken log2 fold change” value is 0.193.

In the case of RRIRWRPPRLPRPRPRPEHQPRP, the “shrunken log2 fold change” value amounted to 0.263.

For RRIRGRPPRLPRPRPRPELNPRP, the “shrunken log2 fold change” value turned out to be 0.724.

Take RRIRSRPPRLPRPRPRPCKHPRP: the “shrunken log2 fold change” value is -0.216.

As for RRIRVRPPRLPRPRPRPKISPRP, the “shrunken log2 fold change” value was -0.234.

Take RRIRGRPPRLPRPRPRPLEQPRP: the “shrunken log2 fold change” value came to 0.435.

For the sequence RRIRCRPPRLPRPRPRPAGEPRP, the “shrunken log2 fold change” value turned out to be 0.598.

Turning to RRIRARPPRLPRPRPRPWHLPRP, the “shrunken log2 fold change” value is -0.0312.

For RRIRKRPPRLPRPRPRPEYWPRP, the “shrunken log2 fold change” value is -0.0125.
